Assay results taken from the supplement of paper PMC9112550, “Optimization of the antimicrobial peptide Bac7 by deep mutational scanning” (BMC Biology, 2022).

System: Escherichia coli TOP10
Assay: shrunken log2 fold change of peptide-encoding DNA abundance (4.5 h post-induction vs induction); higher = less antimicrobial activity (less host growth inhibition)
Conditions: time post-induction: 4.5 h; library: site-saturation at positions 5, 18, 19, 20
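Also: peptides expressed intracellularly from a pBAD plasmid library in pooled LB shake-flask culture, induced with 0.3% L-arabinose, DNA abundance read by NGS, three biological replicates, DESeq2 with apeglm shrinkage.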

| Sequence | shrunken log2 fold change |
| --- | --- |
| RRIRVRPPRLPRPRPRPGLFPRP | 0.0268 |
| RRIRVRPPRLPRPRPRPGMKPRP | -1.14 |
| RRIRVRPPRLPRPRPRPGMTPRP | 0.177 |
| RRIRVRPPRLPRPRPRPGNIPRP | -0.116 |
| RRIRVRPPRLPRPRPRPGPHPRP | 0.121 |
| RRIRVRPPRLPRPRPRPGPLPRP | 0.0392 |
| RRIRVRPPRLPRPRPRPGRCPRP | 0.627 |
| RRIRVRPPRLPRPRPRPGSFPRP | -0.122 |
| RRIRVRPPRLPRPRPRPGSSPRP | -0.169 |
| RRIRVRPPRLPRPRPRPGTRPRP | -0.0152 |
| RRIRVRPPRLPRPRPRPGTTPRP | -0.108 |
| RRIRVRPPRLPRPRPRPGTVPRP | 0.421 |
| RRIRVRPPRLPRPRPRPGVFPRP | 0.117 |
| RRIRVRPPRLPRPRPRPGVNPRP | 0.101 |
| RRIRVRPPRLPRPRPRPGVTPRP | 0.0341 |
| RRIRVRPPRLPRPRPRPGWLPRP | 0.543 |
| RRIRVRPPRLPRPRPRPGYHPRP | -0.364 |
| RRIRVRPPRLPRPRPRPGYRPRP | -0.203 |
| RRIRVRPPRLPRPRPRPHDNPRP | -0.445 |
| RRIRVRPPRLPRPRPRPHDPPRP | 0.0847 |
| RRIRVRPPRLPRPRPRPHDVPRP | -0.116 |
| RRIRVRPPRLPRPRPRPHFNPRP | -0.705 |
| RRIRVRPPRLPRPRPRPHGNPRP | -0.0331 |
| RRIRVRPPRLPRPRPRPHGWPRP | 0.492 |
| RRIRVRPPRLPRPRPRPHHDPRP | -0.37 |

| Sequence | shrunken log2 fold change |
| --- | --- |
| RRIRVRPPRLPRPRPRPHHGPRP | -0.348 |
| RRIRVRPPRLPRPRPRPHIGPRP | -0.0312 |
| RRIRVRPPRLPRPRPRPHKKPRP | -0.169 |
| RRIRVRPPRLPRPRPRPHKQPRP | 0.0253 |
| RRIRVRPPRLPRPRPRPHKTPRP | -0.127 |
| RRIRVRPPRLPRPRPRPHLDPRP | 0.0818 |
| RRIRVRPPRLPRPRPRPHLFPRP | 0.461 |
| RRIRVRPPRLPRPRPRPHMEPRP | -0.0402 |
| RRIRVRPPRLPRPRPRPHMPPRP | -0.725 |
| RRIRVRPPRLPRPRPRPHNQPRP | -0.471 |
| RRIRVRPPRLPRPRPRPHPAPRP | 0.296 |
| RRIRVRPPRLPRPRPRPHPRPRP | 0.555 |
| RRIRVRPPRLPRPRPRPHQDPRP | -0.264 |
| RRIRVRPPRLPRPRPRPHREPRP | -0.223 |
| RRIRVRPPRLPRPRPRPHSMPRP | -0.333 |
| RRIRVRPPRLPRPRPRPHTHPRP | -0.414 |
| RRIRVRPPRLPRPRPRPHVFPRP | -0.0624 |
| RRIRVRPPRLPRPRPRPHVKPRP | -0.0504 |
| RRIRVRPPRLPRPRPRPHWMPRP | -0.32 |
| RRIRVRPPRLPRPRPRPIDYPRP | 0.0808 |
| RRIRVRPPRLPRPRPRPIELPRP | -0.167 |
| RRIRVRPPRLPRPRPRPIEPPRP | -0.065 |
| RRIRVRPPRLPRPRPRPIFRPRP | 0.0423 |
| RRIRVRPPRLPRPRPRPIGDPRP | 0.0238 |
| RRIRVRPPRLPRPRPRPIHRPRP | -0.3 |

| Sequence | shrunken log2 fold change |
| --- | --- |
| RRIRVRPPRLPRPRPRPIKMPRP | -0.697 |
| RRIRVRPPRLPRPRPRPIKRPRP | 0.048 |
| RRIRVRPPRLPRPRPRPIKTPRP | 0.059 |
| RRIRVRPPRLPRPRPRPIPIPRP | -0.106 |
| RRIRVRPPRLPRPRPRPIPWPRP | -0.232 |
| RRIRVRPPRLPRPRPRPIREPRP | -0.152 |
| RRIRVRPPRLPRPRPRPITWPRP | -0.182 |
| RRIRVRPPRLPRPRPRPIWDPRP | 0.0206 |
| RRIRVRPPRLPRPRPRPIWGPRP | 0.0376 |
| RRIRVRPPRLPRPRPRPKCTPRP | -0.0595 |
| RRIRVRPPRLPRPRPRPKDRPRP | -0.0469 |
| RRIRVRPPRLPRPRPRPKENPRP | 0.184 |
| RRIRVRPPRLPRPRPRPKFKPRP | -0.2 |
| RRIRVRPPRLPRPRPRPKGYPRP | -0.0404 |
| RRIRVRPPRLPRPRPRPKIMPRP | -0.193 |
| RRIRVRPPRLPRPRPRPKIVPRP | 0.2 |
| RRIRVRPPRLPRPRPRPKMLPRP | -0.13 |
| RRIRVRPPRLPRPRPRPKNVPRP | -0.0901 |
| RRIRVRPPRLPRPRPRPKNYPRP | -0.359 |
| RRIRVRPPRLPRPRPRPKPAPRP | 0.431 |
| RRIRVRPPRLPRPRPRPKPEPRP | 0.326 |
| RRIRVRPPRLPRPRPRPKPVPRP | 0.42 |
| RRIRVRPPRLPRPRPRPKRHPRP | 0.0244 |
| RRIRVRPPRLPRPRPRPKRPPRP | 0.32 |
| RRIRVRPPRLPRPRPRPKTLPRP | -0.0985 |
